carboxyfluorescein = carboxyfluorescein label (N-terminal); fluorescein = fluorescein label

The record followed here is patent US8313778B2, “Drug-delivery systems” (Evonik Roehm GmbH, priority 2005, dated 2012).

Series [1] relates to HeLa cells. Format: cell-based, human. The note with it: flow cytometry (FIG. 5). On the procedure:
Cells and reagents: The human HeLa carcinoma cells used are derived from the American Type Culture Collection (Manassas, Va., USA). HeLa cells were cultured in RPMI 1640 medium with stabilized glutamine and 2.0 g/l NaHCO3 (PAN Biotech, Aidenbach, Germany) and with 10% foetal calf serum (PAN Biotech). Chlorbromazine was purchased from (Calbiochem (Bad Soden, Germany), 5-(N-ethyl-N-isopropyl)amiloride (EIPA), methyl-β-cyclodextrin (MβCD) and MTT [3-(4,5-dimethylthiazol-2-yl)-2,5-diphenyltetrazolium bromide] was purchased from Sigma (Deisenhofen, Germany).
Peptides: The peptides used were synthesized by EMC microcollections (Tübingen, Germany). The purity of all the peptides was checked by analytical HPLC. […]
Stock solution of the peptides: The peptides were taken up in DMSO to result in a 10 mM solution. […] This took place by UV/VIS spectrometry with a 1:100 dilution of the stock solution with 0.1M Tris/HCl buffer (pH 8.8), the absorption at 492 nm was measured, and carboxyfluorescein was assumed to have an extinction coefficient of 75 000 l/(mol·cm). […]
The peptides derived from human or bovine lactoferrin were prepared by solid-phase peptide synthesis. […] In order to determine whether the derived lactoferrin peptides have an activity as cell-penetrating peptides, the cell-associated fluorescence of the HeLa cells incubated with bLF peptides or hLF peptides was determined by flow cytometry. […]

For series [2], the system named is HeLa cells. Description: Cytotoxicity of hLF peptide, MTT test. It counts as cell-based, human. The note with it: for ability of the cells to survive (MTT test): HeLa cells. On the procedure:
However, relatively short incubation times of less than one hour were used when observing peptide uptake in live cells. In addition, therefore, the effect of longer incubation times and higher concentrations of the peptides on the ability of the cells to survive was tested. HeLa cells were for this purpose incubated with hLF peptide at a concentration of 1.25 μM to 160 μm for 0.5 or 6 h. The vitality of the cells was then determined with an MTT test.
In general terms: Tetrazolium dyes change colour on reduction, which living cells bring about.

Regarding “Fluo-FQWQRNMRKVR-CONH2 (fluorescein-FQWQRNMRKVR-NH2; listed as Homo sapiens) [LF2]”, in the series on HeLa cells [1], the “uptake relative to the amount taken up of hLF peptide” value is recorded as “one-tenth”.
On the same count and under the same terms, under “Fluo-FQWQRNMRKVRGPPVS-CONH2 (fluorescein-FQWQRNMRKVRGPPVS-NH2; listed as Homo sapiens) [LF1]” stands “one-tenth”.
For the substance “Fluo-KCFQWQRNMRKVRGPPVSCIKR-CONH2 (carboxyfluorescein-KCFQWQRNMRKVRGPPVSCIKR-NH2; cysteine pairing not given here; listed as Homo sapiens) [hLF peptide]”, in the series with HeLa cells [2] (HeLa cells incubated for only 30 min, up to a concentration of 40 μM (FIG. 6)), the “cytotoxic effects (MTT test)” value is listed as “No cytotoxic effects”. Further, the “ability of the cells to survive (MTT test)” value in the series with HeLa cells [2] (concentrations above 40 μM (FIG. 6)) is “killed”; with HeLa cells [2] (peptide concentration of 5 μM, after 6 h (FIG. 6)), “slightly reduced”.
